The target of experiment [1] is T1, β2AR (Homo sapiens, UniProt P07550).
T1 construct: hexahistidine (C); made in house; host or cells: Sf9 insect cells
The experiment is described as follows: Saturation and competition binding assays on purified β2AR reconstituted in phospholipid vesicles, with and without prebound Fab 5. The note with it: saturation binding, read-out: [3H]dihydroalprenolol Kd ± S.E. How it is done:
The effect of Fab binding on ligand binding properties and on agonist-induced three dimensional changes was determined.

Experiment [2] has as its target T2, β2AR-TMR (Homo sapiens, UniProt P07550).
T2 construct: made in house
Briefly: Fluorescence of β2AR labeled at C265 with tetramethylrhodamine (β2AR-TMR), antibody dose-response. It is filed as biochemical. How it is done:
FIGS. 2A and 2B. Binding characteristics of β2AR-specific antibodies. 2A, Dot-blots showing binding of nine β2AR specific antibodies to denatured receptor. Equal amounts of β2AR denatured with SDS and β-mercaptoethanol were spotted in triplicate on nitrocellulose strips. The strips were blocked with 5% non-fat dry milk in PBS-Tween (0.05% Tween-20) and then probed with […] of the indicated antibodies diluted in blocking buffer. Binding of the primary antibody to the denatured β2AR was detected with an Alexa-688 labeled anti-mouse secondary antibody. The top panel is a graphical representation of the average dot intensity from three independent experiments. The lower panel is a representative experiment. […] 2B, Dose-response curves showing the effect on increasing amounts of antibodies 4-9 on the fluorescence of β2AR labeled at C265 with tetramethylrhodamine (β2AR-TMR). β2AR-TMR was diluted to 4 nM in 500 μL of buffer consisting of 0.1% dodecylmaltoside, 100 mM sodium chloride, and 20 mM HEPES buffer (pH 7.5). […]
To select for antibodies that may interact with IC3, we examined the effect of antibody binding on the fluorescence of β2AR labeled at C265 (at the cytoplasmic end of TM6) with tetramethylrhodamine. […] As such, antibodies binding to IC3 may stabilize a specific conformation of TM5 relative to TM6 that would be detected by a change in tetramethylrhodamine fluorescence.

In experiment [3] the target is T3, denatured β2AR (Homo sapiens, UniProt P07550).
T3 construct: hexahistidine (C); made in house; host or cells: Sf9 insect cells
Briefly: Dot-blot binding of antibodies to SDS-denatured β2AR. The following applies: β2AR denatured with SDS, spotted on nitrocellulose. How it is done:
FIGS. 2A and 2B. Binding characteristics of β2AR-specific antibodies. 2A, Dot-blots showing binding of nine β2AR specific antibodies to denatured receptor. Equal amounts of β2AR denatured with SDS and β-mercaptoethanol were spotted in triplicate on nitrocellulose strips. The strips were blocked with 5% non-fat dry milk in PBS-Tween (0.05% Tween-20) and then probed with […] of the indicated antibodies diluted in blocking buffer. Binding of the primary antibody to the denatured β2AR was detected with an Alexa-688 labeled anti-mouse secondary antibody. The top panel is a graphical representation of the average dot intensity from three independent experiments. The lower panel is a representative experiment. The binding of all 9 antibodies to denatured β2AR is reduced compared to M1 binding to the linear Flag epitope. 2B, Dose-response curves showing the effect on increasing amounts of antibodies 4-9 on the fluorescence of β2AR labeled at C265 with tetramethylrhodamine (β2AR-TMR). β2AR-TMR was diluted to 4 nM in 500 μL of buffer consisting of 0.1% dodecylmaltoside, 100 mM sodium chloride, and 20 mM HEPES buffer (pH 7.5). Data represent an n of 3.
Antibodies were screened for binding to a three dimensional epitope on the three-dimensional surface on the IC3 of the native β2AR, rather than a flexible linear epitope. […]

Experiment [4] deals with T4, flag tagged β2AR stably expressed in HEK-293 cells (Homo sapiens, UniProt P07550).
T4 construct: expressed in transfected cells
The experiment is described as follows: Immunofluorescence staining of HEK-293 cells stably expressing flag tagged β2AR, nonpermeabilized or permeabilized. It is filed as cell-based. The following applies: compared with M1 antibody.
Procedure: HEK-293 cells stably expressing a flag tagged version of the β2AR were cultured on coverslips and processed for immunocytochemistry. After fixation, with 4% paraformaldehyde, the cells were washed and blocked with 2.5% goat serum in PBS alone (nonpermeabilized) or with 0.5% NP-40 in PBS (permeabilized). The cells were incubated with the β2AR specific antibody indicated on the left side of the figure. After several washes, the β2AR monoclonal antibodies were detected with a Texas Red conjugated anti-mouse secondary antibody. […] The images shown are representative of at least 3 experiments. All images were acquired using an Axioplan 2 microscope (Carl Zeiss MicroImaging), fitted with a camera (RTE/CCD-1300-Y/HS; Roper Scientific) controlled using IPLab software (BD Bioscience).
The antibodies were characterized as binding the intracellular or extracellular surface of the receptor in immunofluorescence experiments with HEK-293 cells stably expressing an N-terminally FLAG-tagged version of the β2AR. Antibodies that recognize an intracellular epitope only stain permeabilized cells.

For experiment [5], the target named is T5, β2AR (Homo sapiens, UniProt P07550, A271C/I135W).
T5 construct: made in house
Briefly: Bimane fluorescence assay of agonist-induced conformational change (β2AR labeled with monobromobimane at H271C). In kind it is biochemical. The note with it: 1 μM Fab5, 100 μM isoproterenol, 15 minutes. The text has this:
(§1) FIGS. 3A and 3B. […] The fragmented β2AR was visualized using an Alexa-680 labeled M1 antibody against the N-terminal Flag epitope. […] The loop is marked with MW indicators corresponding to N-terminal fragments containing the Flag epitope. Residues sensitive to trypsin digest are shown in red. 3B, The change in the bimane fluorescence of β2AR labeled with monobromobimane at H271C at the cytoplasmic end of TM6. Bimane fluorescence is quenched by W135 at the cytoplasmic end of TM3 upon agonist binding^9. […] Fluorescence intensity was corrected for background fluorescence from buffer and ligands in all experiments. The data are the mean±S.E. of two independent experiments performed in triplicate.
Purified receptor was reacted with 1:1 equivalent of monobromobimane (mBBr, Invitrogen) in buffer A (100 mM NaCl, 20 mM HEPES, pH 7.5, 0.1% dodecyl maltoside) and incubated overnight on ice in the dark. The fluorophore-labeled receptor was purified right before use by gel filtration on a desalting column equilibrated with buffer B. Fluorescence spectroscopy experiments were performed on a Spex FluoroMax-3 spectrofluorometer (Jobin Yvon Inc, NJ) with photon counting mode by using an excitation and emission bandpass of 4 nm. All experiments were performed at 25° C. For emission scans, excitation was set at 370 nm and emission was measured from 430-530 nm with an integration time of 1 s/nm. […]

Experiment [6] deals with T1, β2AR. The experiment is described as follows: Coupling of purified β2AR to purified G protein. The note with it: data not shown. It is filed as biochemical.
In experiment [7] the target is T1, β2AR. The experiment is described as follows: Limited tryptic digestion of purified β2AR with and without Fab 5, Western blot. It is filed as biochemical. The note with it: preincubated with Fab 5; M1 anti-FLAG Western blot.
Text: as §1
Cleavage of purified β2AR with trypsin yielded two bands with molecular weights of approximately 27 and 29 kDa on a Western blot probed with the M1 anti-FLAG antibody (FIG. 3A). The sizes of these fragments indicate trypsin digestion at two of ten potential sites in IC3 (FIG. 3A).

From patent US7947807B2, “Method for obtaining G protein-coupled receptor (GPCR) diffraction-quality crystals employing a monoclonal antibody that binds to the third intracellular loop (IL3)” (The Board of Trustees of the Leland Stanford Junior …, priority 2007, dated 2011) come the findings set out here.

Entries after “also recorded” stand apart in the source; their conditions may differ. Read-outs that look alike come from different tables or passages of the source.

With `CCCc1ccccc1OCC(O)CNC(C)C` (stereo not shown) [[^3H]dihydroalprenolol], the Kd in experiment [1] (β2AR without prebound Fab 5) came to 1.02 ± 0.09 nM; in experiment [1] (β2AR-Fab5 (prebound Fab 5)), 1.08 ± 0.05 nM.

B1: antibody 5: mouse monoclonal antibody binding a three dimensional epitope on the third intracellular loop of β2AR (protein)
light: DIKMTQSPSSMYASLGERVTITCKASQDINSYLSWFQQKPGKSPKTLIYRANRLVDGVPSRFIGTGSGQDYSLTISSLDYEDMGIYYCLQYDEFPYTFGGGTKLEIKRADAAPTVSIFPPSSEQLTSGGASVVCFLNNFYPKDINVKWKIDGSERQNGVLNSWTDQDSKDSTYSMSSTLTLTKDEYERHNSYTCEATHKTSTSPIVKSFNRNEC
heavy: EVQLQQSGAELARPGASVKLSCKASGYIFTDYYINWVRQRTGQGFEWIGEIYPGSGNIDYNERFKDKATLTADKSSSTAYMQLSSLTSEDSAVYFCVRGFGYWGQGTTLTVSSAKTTPPSVYPLAPGSAAQTNSMVTLGCLVKGYFPEPVTVTWNSGSLSSGVHTFPAVLQSDLYTLSSSVTVPSSTWPSETVTCNVAHPASSTKVDKKIVPRDCGC
For the molecule B1, the “affinity for the β2AR (in words)” value in experiment [2] (from β2AR-TMR dose-response curves, FIG. 2B) is on record as “highest affinity; also recorded: relatively high affinity”. In experiment [2] (β2AR labeled at C265 with tetramethylrhodamine), the “fluorescence response of β2AR-TMR” value is reported as “largest fluorescence response; also recorded: significantly greater than the response to antibody 9”. The “binding to denatured β2AR” value in experiment [3] is reported as “weakest binding to denatured protein; also recorded: bound weakly”. In experiment [4], the “immunostaining on binding to native receptor in fixed cells” value was “comparable to M1”. In experiment [5], the “effect on agonist-induced bimane fluorescence change” value was “not affected”.

B2: Fab 5: Fab fragment of antibody 5 generated by papain cleavage; light chain SEQ ID NO: 1, heavy chain SEQ ID NO: 2 (antibody)
heavy: EVQLQQSGAELARPGASVKLSCKASGYIFTDYYINWVRQRTGQGFEWIGEIYPGSGNIDYNERFKDKATLTADKSSSTAYMQLSSLTSEDSAVYFCVRGFGYWGQGTTLTVSSAKTTPPSVYPLAPGSAAQTNSMVTLGCLVKGYFPEPVTVTWNSGSLSSGVHTFPAVLQSDLYTLSSSVTVPSSTWPSETVTCNVAHPASSTKVDKKIVPRDCGC
light: DIKMTQSPSSMYASLGERVTITCKASQDINSYLSWFQQKPGKSPKTLIYRANRLVDGVPSRFIGTGSGQDYSLTISSLDYEDMGIYYCLQYDEFPYTFGGGTKLEIKRADAAPTVSIFPPSSEQLTSGGASVVCFLNNFYPKDINVKWKIDGSERQNGVLNSWTDQDSKDSTYSMSSTLTLTKDEYERHNSYTCEATHKTSTSPIVKSFNRNEC
modifications: mus musculis; UNSURE (0)...(0) Fab 5 Heavy chain; UNSURE (0)...(0) Fab5 light chain
For B2, the “coupling of purified β2AR to purified G protein” value in experiment [6] is “prevented coupling”. Further, the “effect on agonist-induced bimane fluorescence change” value in experiment [5] was “did not restrict the movement of transmembrane segments”. In addition, the “protection of IC3 from trypsin cleavage” value in experiment [7] is “the 27 kDa band disappears; also recorded: protects the N-terminal end of the loop”.
